What was measured:
[1] = target: T1, CD18 protein fused with human Fc protein, expressed in transfected 293 cells (UniProt P05107 23-700, limits assumed); assay: immunostaining of transfected 293 cells
T1 construct: Negative control for immunostaining; also called control CD18 protein; CD18-human Fc protein; not shown: human Fc
Description: We transfected 293 cells either with BCMA (CD269)-human Fc protein or control CD18 protein fused with human Fc protein and performed immunostaining analysis. […] By IHC, clone 4C8A bound to RPMI8226 cells, myeloma primary tumors and normal human liver, but not to any other normal or other type cancer human tissues, confirming the specificity of BCMA expression. BCMA antibody detected also BCMA in primary multiple myeloma tumors.

[2] = target: T2, BCMA peptide (BCMA extracellular domain protein with a C-terminal deletion of 37 residues) (human); assay: ELISA, plate coated with BCMA peptide, HRP anti-mouse IgG and TMB, OD450
T2 construct: also called BCMA shorter peptide; shorter peptide from BCMA extracellular domain
T2 peptide: MLQMAGQCSQNEYFDSL
Method: We generated mouse monoclonal anti-human BCMA monoclonal antibody 4C8A using hybridoma. Dilutions of the antibody were incubated in ELISA plates coated with BCMA protein, or BCMA peptide (BCMA extracellular domain protein with a C-terminal deletion of 37 residues), or an irrelevant control CD363 protein. Binding of BCMA mAb 4C8A to the coated protein was detected with HRP-conjugated anti-mouse IgG and TMB substrate. […] The binding of BCMA to BCMA protein was in a dose-dependent manner: decreased with […] in contrast to negative controls (FIG. 4).

[3] = target: T3, BCMA protein (recombinant human BCMA) (human, UniProt Q02223 1-54); assay: BLItz biolayer interferometry, anti-mouse IgG biosensor, antibody at 100, 50 and 25 nM
T3 construct: also called BCMA antigen; BCMA recombinant protein
T3 sequence: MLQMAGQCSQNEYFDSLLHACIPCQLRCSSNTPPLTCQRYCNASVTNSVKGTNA
Method: The BCMA 4C8A antibody was diluted to 100, 50 and 25 nM and added to the anti-mouse IgG biosensor (ForteBio Corp., Menlo Park, Calif.). After 5 minutes, the biosensor was rinsed free of unbound antibody. Binding was monitored by the BLItz system (ForteBio), and the antibody's dissociation constant was determined with the BLItz software.

T1 sequence (P05107 23-700 limits assumed): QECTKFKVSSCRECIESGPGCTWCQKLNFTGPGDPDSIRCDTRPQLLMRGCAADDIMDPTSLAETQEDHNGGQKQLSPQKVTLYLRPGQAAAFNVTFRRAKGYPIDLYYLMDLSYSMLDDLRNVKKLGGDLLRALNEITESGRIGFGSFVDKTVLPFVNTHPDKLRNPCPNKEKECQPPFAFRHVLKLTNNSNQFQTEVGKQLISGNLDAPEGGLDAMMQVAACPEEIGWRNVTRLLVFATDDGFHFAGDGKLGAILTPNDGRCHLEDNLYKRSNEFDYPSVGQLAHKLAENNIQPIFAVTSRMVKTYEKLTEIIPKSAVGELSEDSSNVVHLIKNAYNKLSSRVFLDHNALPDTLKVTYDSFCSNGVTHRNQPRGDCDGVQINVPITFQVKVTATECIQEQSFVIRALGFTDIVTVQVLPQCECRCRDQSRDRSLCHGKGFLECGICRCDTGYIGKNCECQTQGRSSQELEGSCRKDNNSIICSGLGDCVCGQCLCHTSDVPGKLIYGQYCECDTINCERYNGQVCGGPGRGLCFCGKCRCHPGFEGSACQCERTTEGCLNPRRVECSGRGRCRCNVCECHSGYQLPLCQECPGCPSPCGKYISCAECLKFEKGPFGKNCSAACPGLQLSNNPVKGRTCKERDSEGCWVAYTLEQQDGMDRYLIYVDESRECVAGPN

B1: mouse monoclonal anti-human BCMA antibody clone 4C8A (antibody, mouse IgG1, V domains shown)
VH: VQLQQSGPELVKPGASVKMSCKASGYTFTSYVMHWVKQKPGQGLEWIGYIIPYNDATKYNEKFKGKATLTSDKSSSTAYMELSSLTSEDSAVYYCARYNYDGYFDVWGAGTTVTVSS
VL: DIVMTQSPATLSVTPGDRVSLSCRASQSISDYLHWYQQKSHESPRLLIKYASQSISGIPSRFSGSGSGSDFTLSINSVEPEDVGVYYCQNGHSFPPTFGGGTKLEIK
notes: also called BCMA mAb 4C8A; BCMA 4C8A antibody
Which results are given for B1?
binding result [1]: no binding; binding result [2]: no binding; Kd [3]: ~2.8 nM

— patent US20210015870A1 (PROMAB BIOTECHNOLOGIES, published 2021)
